Test results taken from patent US20110129457A1 (CURIS, published 2011).

B6: Hhip1β12 (β-propeller-EGF1-EGF2, residues 193-667), C-terminal His6-tag (receptor)
chain: SNYLDQMEEYDKVEEISRKHKHNCFCIQEVVSGLRQPVGALHSGDGSQRLFILEKEGYVKILTPEGEIFKEPYLDIHKLVQSGIKGGDERGLLSLAFHPNYKKNGKLYVSYTTNQERWAIGPHDHILRVVEYTVSRKNPHQVDLRTARVFLEVAELHRKHLGGQLLFGPDGFLYIILGDGMITLDDMEEMDGLSDFTGSVLRLDVDTDMCNVPYSIPRSNPHFNSTNQPPEVFAHGLHDPGRCAVDRHPTDININLTILCSDSNGKNRSSARILQIIKGKDYESEPSLLEFKPFSNGPLVGGFVYRGCQSERLYGSYVFGDRNGNFLTLQQSPVTKQWQEKPLCLGTSGSCRGYFSGHILGFGEDELGEVYILSSSKSMTQTHNGKLYKIVDPKRPLMPEECRATVQPAQTLTSECSRLCRNGYCTPTGKCCCSPGWEGDFCRTAKCEPACRHGGVCVRPNKCLCKKGYLGPQCEHHHHHH

Tests used:
[1] = target: T1, Shh-Flag (human Shh residues 25-197 with C-terminal Flag-Tag) (human, UniProt Q15465 25-197); assay: competition ELISA: Hip-L2 peptide dilution with 800 nM Hhip protein on Shh-Flag captured by anti-Flag M2, anti-His-HRP detection
T1 construct: range 25-197; not shown: C-terminal Flag-Tag

[2] = target: T2, full length human Patched-1 on 293 cells (Ptch1-293 clone 10) (human, UniProt Q13635 1-1447); assay: FACS competition: 1 nM Shh649 with inhibitor on Ptch1 expressing cells
T2 construct: whole, on cells; also called Ptch1 expressing cells; Ptch1-293 cells
T2 sequence (looked up): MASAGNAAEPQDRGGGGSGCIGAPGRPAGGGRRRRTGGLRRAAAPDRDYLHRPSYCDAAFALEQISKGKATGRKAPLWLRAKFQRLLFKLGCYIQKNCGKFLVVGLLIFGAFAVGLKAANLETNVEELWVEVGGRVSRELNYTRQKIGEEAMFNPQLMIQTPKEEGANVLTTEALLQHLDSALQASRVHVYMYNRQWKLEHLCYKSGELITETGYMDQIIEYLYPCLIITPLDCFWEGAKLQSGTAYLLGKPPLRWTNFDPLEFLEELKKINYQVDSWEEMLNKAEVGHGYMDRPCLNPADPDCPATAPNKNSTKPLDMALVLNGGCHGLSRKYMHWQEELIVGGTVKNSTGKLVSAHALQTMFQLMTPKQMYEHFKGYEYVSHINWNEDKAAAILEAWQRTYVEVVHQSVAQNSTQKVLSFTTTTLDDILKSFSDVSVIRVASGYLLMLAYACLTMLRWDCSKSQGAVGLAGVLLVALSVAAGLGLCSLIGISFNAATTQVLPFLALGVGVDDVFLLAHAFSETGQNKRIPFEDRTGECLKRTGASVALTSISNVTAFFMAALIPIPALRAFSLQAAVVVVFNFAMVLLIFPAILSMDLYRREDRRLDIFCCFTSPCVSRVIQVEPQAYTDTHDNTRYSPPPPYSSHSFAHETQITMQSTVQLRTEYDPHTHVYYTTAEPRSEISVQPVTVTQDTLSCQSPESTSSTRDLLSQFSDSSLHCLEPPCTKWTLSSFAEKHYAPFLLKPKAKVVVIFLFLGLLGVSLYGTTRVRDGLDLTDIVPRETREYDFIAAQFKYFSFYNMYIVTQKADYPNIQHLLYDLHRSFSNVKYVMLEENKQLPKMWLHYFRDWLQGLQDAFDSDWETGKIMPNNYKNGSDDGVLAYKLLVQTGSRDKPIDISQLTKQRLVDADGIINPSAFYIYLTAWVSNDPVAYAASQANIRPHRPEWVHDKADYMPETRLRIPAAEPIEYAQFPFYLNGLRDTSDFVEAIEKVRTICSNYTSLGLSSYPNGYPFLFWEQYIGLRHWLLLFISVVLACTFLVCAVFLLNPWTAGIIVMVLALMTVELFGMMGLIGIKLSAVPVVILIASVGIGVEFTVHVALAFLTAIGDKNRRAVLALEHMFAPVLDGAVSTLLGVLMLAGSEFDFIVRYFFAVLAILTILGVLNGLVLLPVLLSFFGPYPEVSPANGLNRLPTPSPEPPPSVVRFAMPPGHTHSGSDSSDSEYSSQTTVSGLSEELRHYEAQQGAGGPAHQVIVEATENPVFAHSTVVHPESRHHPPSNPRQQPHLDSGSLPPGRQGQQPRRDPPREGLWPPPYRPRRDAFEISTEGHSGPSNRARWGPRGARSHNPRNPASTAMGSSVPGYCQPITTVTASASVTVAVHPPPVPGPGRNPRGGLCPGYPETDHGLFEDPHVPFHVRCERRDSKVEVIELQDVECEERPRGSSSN

[3] = target: fully lipid-modified Shh secreted by human HT29 cells (human, UniProt Q15465 24-197, N-terminal palmitoyl and C-terminal cholesterol modifications); assay: cell-based or functional assay
[4] = target: B6; assay: competition ELISA as in paragraph 570; the legend gives Ihh and Shh the other way round
[5] = target: B6; assay: competition ELISA: unlabeled Ihh against 5 nM biotinylated ShhN-Cys for immobilized Hhip1β12
[6] = target: T2, full length human Patched-1 on 293 …; assay: FACS competition: unlabeled Ihh against 1 nM Shh649 for Ptch1-expressing 293 cells
[7] = target: B6; assay: competition ELISA: unlabeled Hh against 5 nM biotinylated-ShhN-Cys for immobilized Hhip1β12

B1: Hip-L2 peptide (GDGMITLDDMEEMDGLSDFTG) of the competition ELISA (peptide)
peptide: GDGMITLDDMEEMDGLSDFTG
notes: also called Hhip1-L2 peptide; peptide derived from the Hhip1β12 L2 loop
B1 gave an IC50 [1] of 150000 nM.

B2: octyl-Ihh (octylated Ihh wildtype) (ligand)
chain: not shown
modifications: octylated (site not stated)
Work on B2 yielded an IC50 [2] of 0.64 nM.

B3: octyl-T154I (octylated Ihh T154I) (ligand)
chain: not shown
modifications: octylated (site not stated)
B3 was tested, and the IC50 [2] was 10 nM.

B4: Ihh T154I (type A1 brachydactyly mutant) (ligand)
chain: not shown
Binder B4 has an IC50 [2] of 140 nM.

B5: Hhip1β1 (β-propeller-EGF1, residues 193-637), C-terminal His6-tag (receptor)
chain: SNYLDQMEEYDKVEEISRKHKHNCFCIQEVVSGLRQPVGALHSGDGSQRLFILEKEGYVKILTPEGEIFKEPYLDIHKLVQSGIKGGDERGLLSLAFHPNYKKNGKLYVSYTTNQERWAIGPHDHILRVVEYTVSRKNPHQVDLRTARVFLEVAELHRKHLGGQLLFGPDGFLYIILGDGMITLDDMEEMDGLSDFTGSVLRLDVDTDMCNVPYSIPRSNPHFNSTNQPPEVFAHGLHDPGRCAVDRHPTDININLTILCSDSNGKNRSSARILQIIKGKDYESEPSLLEFKPFSNGPLVGGFVYRGCQSERLYGSYVFGDRNGNFLTLQQSPVTKQWQEKPLCLGTSGSCRGYFSGHILGFGEDELGEVYILSSSKSMTQTHNGKLYKIVDPKRPLMPEECRATVQPAQTLTSECSRLCRNGYCTPTGKCCCSPGWEGDFCRTAHHHHHH
For B5, the “IC50, inhibition of Gli-luciferase activity in HT29/S12 co-culture” value [3] was 20.3 nM and the “fold of IC50 against Hhip1ECD, Gli-luciferase co-culture” value [3] was ~4 fold.

For B6, the “IC50, inhibition of Gli-luciferase activity in HT29/S12 co-culture” value [3] was 5 nM.

B7: Hhip1β12 D383R (receptor)
chain: SNYLDQMEEYDKVEEISRKHKHNCFCIQEVVSGLRQPVGALHSGDGSQRLFILEKEGYVKILTPEGEIFKEPYLDIHKLVQSGIKGGDERGLLSLAFHPNYKKNGKLYVSYTTNQERWAIGPHDHILRVVEYTVSRKNPHQVDLRTARVFLEVAELHRKHLGGQLLFGPDGFLYIILGDGMITLDDMEEMRGLSDFTGSVLRLDVDTDMCNVPYSIPRSNPHFNSTNQPPEVFAHGLHDPGRCAVDRHPTDININLTILCSDSNGKNRSSARILQIIKGKDYESEPSLLEFKPFSNGPLVGGFVYRGCQSERLYGSYVFGDRNGNFLTLQQSPVTKQWQEKPLCLGTSGSCRGYFSGHILGFGEDELGEVYILSSSKSMTQTHNGKLYKIVDPKRPLMPEECRATVQPAQTLTSECSRLCRNGYCTPTGKCCCSPGWEGDFCRTAKCEPACRHGGVCVRPNKCLCKKGYLGPQCEHHHHHH
B7 was tested, and the “IC50, Gli-luciferase co-culture assay” value [3] was 57 nM and the “fold change of IC50, Gli-luciferase co-culture assay” value [3] was ~13 fold.

B8: Hhip1β12 D383A (receptor)
chain: SNYLDQMEEYDKVEEISRKHKHNCFCIQEVVSGLRQPVGALHSGDGSQRLFILEKEGYVKILTPEGEIFKEPYLDIHKLVQSGIKGGDERGLLSLAFHPNYKKNGKLYVSYTTNQERWAIGPHDHILRVVEYTVSRKNPHQVDLRTARVFLEVAELHRKHLGGQLLFGPDGFLYIILGDGMITLDDMEEMAGLSDFTGSVLRLDVDTDMCNVPYSIPRSNPHFNSTNQPPEVFAHGLHDPGRCAVDRHPTDININLTILCSDSNGKNRSSARILQIIKGKDYESEPSLLEFKPFSNGPLVGGFVYRGCQSERLYGSYVFGDRNGNFLTLQQSPVTKQWQEKPLCLGTSGSCRGYFSGHILGFGEDELGEVYILSSSKSMTQTHNGKLYKIVDPKRPLMPEECRATVQPAQTLTSECSRLCRNGYCTPTGKCCCSPGWEGDFCRTAKCEPACRHGGVCVRPNKCLCKKGYLGPQCEHHHHHH
For B8, the “IC50, Gli-luciferase co-culture assay” value [3] was ~10 nM and the “fold of IC50 against wildtype Hipβ12, Gli-luciferase co-culture assay” value [3] was 2 fold.

B9: Human Ihh (residues 29-202), N-terminal His6-tag (ligand)
chain: not shown
notes: range 29-202; also called His6-Ihh; Indian Hedgehog
With B9 the IC50 [4] was 53 nM, the “IC50 (read off the curve)” value [5] was ~90 nM and the “IC50 (read off the curve)” value [6] was ~3 nM. For the same binder, the IC50 [7] was 87 nM and the IC50 [2] was 1.1 nM.

B10: Human Dhh (residues 24-198), N-terminal His6-tag (ligand)
chain: not shown
notes: range 24-198; also called Desert Hedgehog
B10 was tested, and the IC50 [7] was 40 nM.
